The values below come from patent US20100092481A1.

The target in experiment [1] is gB 69-78 peptide (human cytomegalovirus) (UniProt P06473). Description: ELISA on peptide.
The target of experiment [2] is T1, hCMV gH protein, full length, expressed in HEK293T cells (human cytomegalovirus), P12824. The experiment can be described thus: cell cross-competition, 20x excess; competitor 11B12-biotin. The settings on record: remark: other sources report otherwise.
The target in experiment [3] is T1, hCMV gH protein, full length, expressed …. Description: cell cross-competition, 20x excess; competitor 13H11-biotin. The note with it: remark: other sources report otherwise.
Experiment [4] has the same target. Description: cell cross-competition, 20x excess; competitor 3G16-biotin. The note with it: remark: other sources report otherwise.

B1: 6B4 (antibody, V domains shown)
VH: QVQLVESGGGVVQPGRSLRLSCAASGFRFNEFNMHWVRQAPGKGLEWVAVISIDGRHKYNADSVEGRFTISRDNSRNTLYLQMNSLRVEDTALYYCVTDGKAVDGFSGILEFWGQGTPVTVST
VL: EIVLTQSPATLSLSPGERATLSCWASQSVGGYLAWYQQKPGQAPRLLIYDASIRATGIPARFSGSGSGTHFTLTINSLEPEDFAVYYCQQRNNWPPLTFGGGTKVEIK
A word on the EC50: it is the concentration needed to bring the measured effect to its halfway point. In experiment [1], B1 showed a half-maximal effective concentration (EC50) of 0.044 µg/mL.

B2: 11B12 (antibody, V domains shown)
VH: QMQLVQSGPQVKKPGTSVKVSCKASGFTFTSSAMQWVRQARGQRPEWIGWIVLGSGNTNYAQKFQERVTLTRDMSTATAYMELSSLRSEDTAVYYCAADRGRGGYNVYTYWGQGTLVAVSS
VL: EIVMTQSPGTLSLSPGERATLSCRASQTISNTYVAWYQQKPGQAPRLLIYGASSRATGIPDRFSGSGSGTDFTLTIRRLEPEDFAVYYCQQNGQSPWTFGQGTNVEIK
In the case of B2, the Inhibition of binding (%) in experiment [2] was determined as 100%; in experiment [3] it was 100%; in experiment [4], 0%.

B3: 3G16 (antibody, V domains shown)
VH: RAQLVQSAAEMKNPGASVKVSCEASGYTFTGYYVHWMRQAPGQGLEWMGWINPMTGATKSPQKFQGRVTMTRDTSTTATHIELTRLRSDDSAVFFCARGGPTSTRITGKRHFDLWGRGTLITVAS
VL: QSALTQPASVSGSPGESITISCTGTISDVGAYNSVSWYQQHSGTAPELIIYDVTNRPAGVSSRFSGSKSGNTASLTISWLQSEDEAEYYCSSYTTSDTYVFGSGTQVTVL
For B3, the values for the Inhibition of binding (%) in experiment [2], in experiment [3] and in experiment [4] were 0%, 0% and 100%, respectively.

B4: 13H11 (antibody, V domains shown)
VH: QVQLVQSGAEVKKPGASVKVSCKASGYTFTNYYIHWVRQAPGQGLEWMGIIHPSSGGTSYAQKFQGRVTMTRDTSTSTVSMDLSSLRSEDTAVYYCGRAFRILGLSDVFVNDWGQGTVVTVSS
VL: DIQMTQSPSSLSASVGDRVTITCRASQGINNYLAWYQQKPGKVPKLLIYAASTLQSGVPSRFSGSGSGTAFTLTILSLQPEDVATYYCQKYNSAPFTFGPGTKVDIK
Take B4: the Inhibition of binding (%) in experiment [2] came out at 100%; in experiment [3], 100%; in experiment [4], 0%.
